Experimental data as given in US8623627B2, “Labelling of fusion proteins with synthetic probes” (New England Biolabs, Inc, priority 2006, dated 2014).

T1: GST-ACT1 (Homo sapiens, UniProt P16455, A127T/A154D/C150Q/C62A/G131S/G132T/G153L/K125A/K32I/L33F/M134L/N157G/Q115S/Q116H/R128A/R135D/S151G/S152D/S159M/V148E/Y114R)
T1 construct: made in house
T1 sequence (P16455 1-182 K32I/L33F/C62A/Y114R/Q115S/Q116H/K125A/A127T/R128A/G131S/G132T/M134L/R135D/V148E/C150Q/S151G/S152D/G153L/A154D/N157G/S159M): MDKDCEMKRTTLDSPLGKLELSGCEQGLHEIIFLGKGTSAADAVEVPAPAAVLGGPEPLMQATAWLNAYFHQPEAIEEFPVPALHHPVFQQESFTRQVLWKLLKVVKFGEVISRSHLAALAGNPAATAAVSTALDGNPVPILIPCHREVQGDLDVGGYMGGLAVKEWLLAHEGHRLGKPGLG

T2: 6×His-^NAGT (Homo sapiens, UniProt P16455, A127T/A154D/C150Q/C62A/G131K/G132T/G153L/K125A/K32I/L33F/M134L/N157G/Q115S/Q116H/R128A/R135S/S151G/S152D/S159E)
T2 construct: ^NAGT is a 182 amino acid mutant of ^wtAGT in which the last 25 amino acids are deleted
T2 sequence (P16455 1-182 K32I/L33F/C62A/Q115S/Q116H/K125A/A127T/R128A/G131K/G132T/M134L/R135S/C150Q/S151G/S152D/G153L/A154D/N157G/S159E): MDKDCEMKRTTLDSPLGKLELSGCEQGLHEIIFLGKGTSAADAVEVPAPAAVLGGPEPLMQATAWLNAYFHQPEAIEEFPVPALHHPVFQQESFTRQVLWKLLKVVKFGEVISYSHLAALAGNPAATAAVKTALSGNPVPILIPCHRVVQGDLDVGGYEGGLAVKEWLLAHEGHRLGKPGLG


Key:
[1] = molecular target: T1, GST-ACT1; test: In vitro specific dual labelling assay, labelling of GST-ACT1; type: biochemical; settings: equimolar GST-ACT1 and 6×His-^NAGT 0.5 μM, single substrate 5 μM, 24° C., 60 minutes
Description: (§1) Fluorescent dye-labelled protein mixtures were analyzed by SDS-PAGE, see Example 12. GST-ACT1: fusion protein of ACT 1 (SEQ ID NO:1) with glutathione S-transferase (GST). 6×His-AGT: fusion protein of ^NAGT (SEQ ID NO:2) with the short peptide 6×His. […] BCFL: compound 5 (Example 4). BCCy5: compound 10 (Example 8).
(§2) Labelling reactions were quenched by addition of 4× SDS buffer (8% SDS, 10% β-mercaptoethanol, 240 mM Tris pH 6.8, 40% glycerol) and incubation for 5 min at 95° C. Fluorescent dye-labelled protein mixtures were analyzed by SDS-PAGE as described above.

[2] = molecular target: T2, 6×His-^NAGT; test: In vitro specific dual labelling assay, labelling of 6×His-^NAGT; type: biochemical; settings: equimolar GST-ACT1 and 6×His-^NAGT 0.5 μM, single substrate 5 μM, 24° C., 60 minutes
Description: as §1, §2

[3] = Reaction rates of labelling of GST fusion proteins with BCFL; type: biochemical; settings: for kBCFL: second-order rate constant, GST-fusion protein with BCFL, 50 mM HEPES pH 7.2, 24° C.
Description: (§3) The fluorescent readout of an SDS gel run after different time of incubation is shown on top with the corresponding graph at the bottom. The percentage of ACT-Fluorescein conjugate (% ACT-FL) formed from ACT is shown vs. time of incubation (min). […] GST-ACT10: fusion protein of ACT 10 (SEQ ID NO:12) with glutathione S-transferase (GST).
(§4) The genes of mutants isolated after phage selection according to Example 9 were amplified by PCR using primers 6 (N, AGT, SEQ ID NO:8) and 7 (C, AGT, SEQ ID NO:9) that contain, respectively, BamH1 and EcoR1 restriction sites for subsequent subcloning into pGEX-2T vector (Amersham Biosciences, Otelfingen, Switzerland). Expression and purification of proteins as GST-ACT fusion proteins were performed as previously described for AGT fusion proteins (A. Juillerat, T. Gronemeyer, A. Keppler, S. Grendreizig, H. Pick, H. Vogel, K. Johnsson, Chem. Biol. 10:313, 2003). […] Samples were taken at different times and the labelling reaction was quenched by addition of 4× SDS buffer (8% SDS, 10% β-mercaptoethanol, 240 mM Tris pH 6.8, 40% glycerol) and incubation at 95° C. for 5 min. The reaction advancement was determined by detection of the fluorescent dye-labelled proteins in SDS-PAGE gel and quantification of fluorescence intensity using a Pharox FX™ molecular imager. The data were fitted to a pseudo-first order reaction model. Second-order rate constants were then obtained by dividing the pseudo first-order constant by the concentration of fluorogenic substrate.

[4] = Reaction rates of labelling of GST fusion proteins with BGFL; type: biochemical; settings: for kBGFL: second-order rate constant, GST-fusion protein with BGFL, 50 mM HEPES pH 7.2, 24° C.
Description: as §3, §4

[5] = Urea-induced unfolding, read out as ACT-Fluorescein formed with BCFL; type: physicochemical; settings: for half unfolding urea concentration C1/2: protein 0.5 μM, urea 0 to 8 M for 30 minutes, then 20 μM BCFL for 2 hours
Description: Shown is the percentage of ACT-Fluorescein (% ACT-FL) formed. The value obtained at 0 M urea [(NH2)2CO] is set to 100%. Protein (0.5 μM) was incubated in kinetic buffer (50 mM HEPES, pH 7.2, 1 mM DTT) supplemented with urea (0 to 8 M) for 30 minutes. Then the solution was adjusted to 20 μM BCFL and incubated for 2 hours. Samples were then boiled 5 min at 95° C. in SDS buffer. Fluorescent dye-labelled protein mixtures were analyzed by SDS-PAGE. The data set was fitted with Y=100/(1+10^((log C1/2−X)*HillSlope)) to get the half unfolding urea concentration C1/2. The following values of C1/2 were found for the different mutants: • ACT1 2.8±0.1 M; ACT9 4.1±0.1 M; ACT10 5.1±0.2 M.

[6] = versus ^wtAGT; cited from earlier work

labelling of 6×His-^NAGT [2] | Molecule | labelling of GST-ACT1 [1] | kBCFL [3] | kBGFL [4] | half unfolding urea concentration C1/2 [5] | further results
6% | N-[4-(4-Aminopyrimidin-2-yloxymethyl)-benzyl]-Cy5-carboxamide [BCCy5] | complete labelling | – | – | – | –
complete labelling | O^6-[4-(Cy5)-Aminomethyl]-benzyl guanine [BGCy5] | – | – | – | – | –
– | ACT 10: alkylcytosine transferase 10, SEQ ID NO:12, from error prone PCR of ACT9 (protein, alyklcytosine transferase 10 derived from O6- alkylguanine-DNA alkyltransferase) MDKDCEMKRTTLDSPLGKLELSGCEQGLHEIIFLGKGTSAADAVEVPAPAAVLGGPEPLIQATAWLNAYFHQPEAIEEFPVPALHHPVFQQESFTRQVLWKLLKVVKFGEVISESHLAALVGNPAATAAVNTALDGNPVPILIPCHRVVQGDSDVGPYLGGLAVKEWLLAHEGHRLGKPGLG | – | 1130 M⁻¹ s⁻¹ | 10 M⁻¹ s⁻¹ | 5.1 ± 0.2 M | reactivity towards benzylcytosine [3]: high reactivity; kBC ([3]; FIG. 2, 0.5 μM GST-ACT10 with BCFL): 1130 ± 150 M⁻¹ s⁻¹; kBG ([4]; FIG. 2, 0.5 μM GST-ACT10 with BGFL): ~10 M⁻¹ s⁻¹; stability against denaturation by urea ([5]; 4 M urea): high stability
– | ACT 1: alkylcytosine transferase 1, SEQ ID NO:1, derived from ^NAGT by directed evolution (protein, alkylcytosine transferase 1 derived from O6- alkylguanine-DNA alkyltransferase) MDKDCEMKRTTLDSPLGKLELSGCEQGLHEIIFLGKGTSAADAVEVPAPAAVLGGPEPLMQATAWLNAYFHQPEAIEEFPVPALHHPVFQQESFTRQVLWKLLKVVKFGEVISRSHLAALAGNPAATAAVSTALDGNPVPILIPCHREVQGDLDVGGYMGGLAVKEWLLAHEGHRLGKPGLG | – | 730 M⁻¹ s⁻¹ | <10 M⁻¹ s⁻¹ | 2.8 ± 0.1 M | –
– | ^NAGT: 182 amino acid mutant of ^wtAGT, SEQ ID NO:2, starting point for directed evolution (protein, O6-alkylguanine-DNA alkyltransferase (AGT) mutant) MDKDCEMKRTTLDSPLGKLELSGCEQGLHEIIFLGKGTSAADAVEVPAPAAVLGGPEPLMQATAWLNAYFHQPEAIEEFPVPALHHPVFQQESFTRQVLWKLLKVVKFGEVISYSHLAALAGNPAATAAVKTALSGNPVPILIPCHRVVQGDLDVGGYEGGLAVKEWLLAHEGHRLGKPGLG | – | 26 M⁻¹ s⁻¹ | 28000 M⁻¹ s⁻¹ | – | higher activity towards benzylguanine derivatives than wild-type ^wtAGT [6]: approximately 50 fold

Molecule | labelling of 6×His-^NAGT [2] | labelling of GST-ACT1 [1] | kBCFL [3] | kBGFL [4] | half unfolding urea concentration C1/2 [5] | further results
Nc1ccnc(OCc2ccc(CNC(=O)c3ccc4c(c3)C3(OC4=O)c4ccc(O)cc4Oc4cc(O)ccc43)cc2)n1 [BCFL, N-[4-(4-Aminopyrimidin-2-yloxymethyl)-benzyl]-fluorescein-6-carboxamide] | 76% | complete labelling | – | – | – | –
